Source: the supplement of paper PMC9112550, “Optimization of the antimicrobial peptide Bac7 by deep mutational scanning” (BMC Biology, 2022)

Each sequence was assayed on Escherichia coli TOP10 (assay: shrunken log2 fold change of peptide-encoding DNA abundance (4.5 h post-induction vs induction); higher = less antimicrobial activity (less host growth inhibition)). Settings: time post-induction: 4.5 h; library: site-saturation at positions 5, 18, 19, 20.
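Also: peptides expressed intracellularly from a pBAD plasmid library in pooled LB shake-flask culture, induced with 0.3% L-arabinose, DNA abundance read by NGS, three biological replicates, DESeq2 with apeglm shrinkage.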

RRIRLRPPRLPRPRPRPPQTPRP and RRIRQRPPRLPRPRPRPMNEPRP are within 0.2 log units of each other in “shrunken log2 fold change” value: 0.0847 for the first, -0.0541 for the second.

RRIRQRPPRLPRPRPRPNREPRP and RRIRIRPPRLPRPRPRPPVSPRP are within 0.2 log units of each other in “shrunken log2 fold change” value: -0.0709 for the first, -0.116 for the second.

First: RRIRSRPPRLPRPRPRPSTIPRP
Second: RRIRWRPPRLPRPRPRPMPIPRP
The “shrunken log2 fold change” value of the first is lower: -0.482 for the first, 0.0953 for the second.

First: RRIRKRPPRLPRPRPRPARSPRP
Second: RRIRYRPPRLPRPRPRPVNEPRP
The “shrunken log2 fold change” value of the first is higher: 0.89 for the first, -0.109 for the second.

Compared with RRIRKRPPRLPRPRPRPYVNPRP, RRIRKRPPRLPRPRPRPFACPRP is higher in “shrunken log2 fold change” value: -0.526 for the first, -0.0138 for the second.

RRIRPRPPRLPRPRPRPWAPPRP and RRIRTRPPRLPRPRPRPHQVPRP are within 0.2 log units of each other in “shrunken log2 fold change” value: 0.153 for the first, -0.0174 for the second.

First: RRIRCRPPRLPRPRPRPRLRPRP
Second: RRIRVRPPRLPRPRPRPFKIPRP
The “shrunken log2 fold change” value of the first is higher: 0.925 for the first, -0.342 for the second.

First: RRIRKRPPRLPRPRPRPTSTPRP
Second: RRIRDRPPRLPRPRPRPFHKPRP
The “shrunken log2 fold change” value of the first is higher: 0.489 for the first, -0.0864 for the second.

RRIRPRPPRLPRPRPRPPIPPRP and RRIRARPPRLPRPRPRPCHFPRP are within 0.2 log units of each other in “shrunken log2 fold change” value: 0.15 for the first, -0.0257 for the second.

First: RRIRRRPPRLPRPRPRPARDPRP
Second: RRIRHRPPRLPRPRPRPAVQPRP
The “shrunken log2 fold change” value of the first is higher: 0.185 for the first, -0.0994 for the second.

First: RRIRWRPPRLPRPRPRPMAGPRP
Second: RRIRLRPPRLPRPRPRPNHFPRP
The “shrunken log2 fold change” value of the first is higher: 0.0179 for the first, -0.349 for the second.

RRIRVRPPRLPRPRPRPWIIPRP and RRIRYRPPRLPRPRPRPMNWPRP are within 0.2 log units of each other in “shrunken log2 fold change” value: -0.652 for the first, -0.463 for the second.

Going from RRIRVRPPRLPRPRPRPVKHPRP to RRIRQRPPRLPRPRPRPHHFPRP, the “shrunken log2 fold change” value rises from -0.3 to -0.0176.

RRIRLRPPRLPRPRPRPEPCPRP and RRIRNRPPRLPRPRPRPSKGPRP are within 0.2 log units of each other in “shrunken log2 fold change” value: 0.0808 for the first, -0.00183 for the second.

RRIRHRPPRLPRPRPRPSIIPRP and RRIRHRPPRLPRPRPRPCQWPRP are within 0.2 log units of each other in “shrunken log2 fold change” value: -0.237 for the first, -0.0469 for the second.

Going from RRIRCRPPRLPRPRPRPACGPRP to RRIRHRPPRLPRPRPRPDCTPRP, the “shrunken log2 fold change” value falls from 0.323 to 0.0402.

Compared with RRIRIRPPRLPRPRPRPNDLPRP, RRIRHRPPRLPRPRPRPHWDPRP is lower in “shrunken log2 fold change” value: -0.16 for the first, -0.557 for the second.

RRIRMRPPRLPRPRPRPDVAPRP and RRIRRRPPRLPRPRPRPEQKPRP are within 0.2 log units of each other in “shrunken log2 fold change” value: 0.0335 for the first, 0.0588 for the second.

Compared with RRIRVRPPRLPRPRPRPRPLPRP, RRIRTRPPRLPRPRPRPRIGPRP is lower in “shrunken log2 fold change” value: 0.378 for the first, 0.116 for the second.

RRIRCRPPRLPRPRPRPDFNPRP and RRIRLRPPRLPRPRPRPQSWPRP are within 0.2 log units of each other in “shrunken log2 fold change” value: -0.242 for the first, -0.0792 for the second.

RRIRIRPPRLPRPRPRPVVWPRP and RRIRTRPPRLPRPRPRPGQNPRP are within 0.2 log units of each other in “shrunken log2 fold change” value: 0.321 for the first, 0.138 for the second.

First: RRIRMRPPRLPRPRPRPMWWPRP
Second: RRIRARPPRLPRPRPRPEALPRP
The “shrunken log2 fold change” value of the first is lower: -0.00447 for the first, 1.71 for the second.

Compared with RRIRRRPPRLPRPRPRPSAPPRP, RRIRCRPPRLPRPRPRPVVFPRP is lower in “shrunken log2 fold change” value: 0.418 for the first, -0.123 for the second.

Compared with RRIRFRPPRLPRPRPRPNSVPRP, RRIRDRPPRLPRPRPRPRDEPRP is higher in “shrunken log2 fold change” value: -0.0912 for the first, 0.12 for the second.

RRIRERPPRLPRPRPRPRNAPRP and RRIRTRPPRLPRPRPRPWVPPRP are within 0.2 log units of each other in “shrunken log2 fold change” value: 0.105 for the first, 0.252 for the second.

RRIRNRPPRLPRPRPRPTAYPRP and RRIRERPPRLPRPRPRPERMPRP are within 0.2 log units of each other in “shrunken log2 fold change” value: -0.184 for the first, -0.0648 for the second.

Compared with RRIRQRPPRLPRPRPRPQFTPRP, RRIRFRPPRLPRPRPRPVLDPRP is lower in “shrunken log2 fold change” value: -0.177 for the first, -0.474 for the second.

RRIRVRPPRLPRPRPRPWGEPRP and RRIRNRPPRLPRPRPRPNCMPRP are within 0.2 log units of each other in “shrunken log2 fold change” value: 0.136 for the first, -0.0251 for the second.

Compared with RRIRYRPPRLPRPRPRPVTHPRP, RRIRHRPPRLPRPRPRPWHPPRP is lower in “shrunken log2 fold change” value: 0.00542 for the first, -0.801 for the second.

First: RRIRPRPPRLPRPRPRPILAPRP
Second: RRIRNRPPRLPRPRPRPTLAPRP
The “shrunken log2 fold change” value of the first is lower: 0.273 for the first, 0.556 for the second.

Compared with RRIRWRPPRLPRPRPRPPEHPRP, RRIRKRPPRLPRPRPRPKCEPRP is higher in “shrunken log2 fold change” value: 0.544 for the first, 0.848 for the second.

First: RRIRTRPPRLPRPRPRPHPRPRP
Second: RRIRDRPPRLPRPRPRPFYMPRP
The “shrunken log2 fold change” value of the first is higher: 0.467 for the first, -0.735 for the second.

Going from RRIRGRPPRLPRPRPRPDPLPRP to RRIRPRPPRLPRPRPRPLNHPRP, the “shrunken log2 fold change” value falls from 0.072 to -0.363.

RRIRRRPPRLPRPRPRPMHDPRP and RRIRLRPPRLPRPRPRPQPVPRP are within 0.2 log units of each other in “shrunken log2 fold change” value: 0.117 for the first, 0.0205 for the second.

RRIRPRPPRLPRPRPRPNPQPRP and RRIRCRPPRLPRPRPRPPYDPRP are within 0.2 log units of each other in “shrunken log2 fold change” value: -0.0414 for the first, -0.0699 for the second.

RRIRARPPRLPRPRPRPFLHPRP and RRIRQRPPRLPRPRPRPVAMPRP are within 0.2 log units of each other in “shrunken log2 fold change” value: 0.0154 for the first, 0.0794 for the second.

Compared with RRIRMRPPRLPRPRPRPEMLPRP, RRIRIRPPRLPRPRPRPGSPPRP is lower in “shrunken log2 fold change” value: 3.45 for the first, -0.19 for the second.

First: RRIRRRPPRLPRPRPRPSDGPRP
Second: RRIRCRPPRLPRPRPRPPDHPRP
The “shrunken log2 fold change” value of the first is lower: 0.0219 for the first, 0.279 for the second.

RRIRDRPPRLPRPRPRPHRTPRP and RRIRERPPRLPRPRPRPLGQPRP are within 0.2 log units of each other in “shrunken log2 fold change” value: -0.0884 for the first, 0.0127 for the second.

Compared with RRIRRRPPRLPRPRPRPLDYPRP, RRIRIRPPRLPRPRPRPDMCPRP is higher in “shrunken log2 fold change” value: -0.324 for the first, 0.00741 for the second.

Going from RRIRQRPPRLPRPRPRPWYHPRP to RRIRFRPPRLPRPRPRPVPNPRP, the “shrunken log2 fold change” value rises from -0.32 to -0.0743.

RRIRMRPPRLPRPRPRPFFDPRP and RRIRLRPPRLPRPRPRPWPVPRP are within 0.2 log units of each other in “shrunken log2 fold change” value: 0.232 for the first, 0.191 for the second.

RRIRNRPPRLPRPRPRPNYAPRP and RRIRQRPPRLPRPRPRPDRGPRP are within 0.2 log units of each other in “shrunken log2 fold change” value: -0.178 for the first, 0.0176 for the second.

Going from RRIRTRPPRLPRPRPRPDRKPRP to RRIRYRPPRLPRPRPRPNWFPRP, the “shrunken log2 fold change” value falls from 0.00258 to -0.892.

RRIRNRPPRLPRPRPRPDWYPRP and RRIRNRPPRLPRPRPRPICLPRP are within 0.2 log units of each other in “shrunken log2 fold change” value: -0.0314 for the first, 0.00214 for the second.

RRIRCRPPRLPRPRPRPHGEPRP was tested, and the “shrunken log2 fold change” value was 0.0148.
